{"source": "paper PMC7934860", "about": "“Acetylation of muscle creatine kinase negatively impacts high-energy phosphotransfer in heart failure” (JCI Insight, 2021)", "key": {"[1]": {"molecular_target": "the molecule itself", "test": "native gel or EMSA; human rCKM, nonacetylated or in vitro acetylated, on 10% native-PAGE at 4°C (running buffer 50 mM Tris-Base, 50 mM MOPS, 0.0375% SDS, pH 7.8), blotted with anti-CKM; dimer and monomer bands by densitometry; dimer to monomers"}, "[2]": {"molecular_target": "the molecule itself", "test": "native gel or EMSA; murine cardiac lysates of sham and TAC hearts (50 mM potassium phosphate, 1 mM EDTA, 1 mM beta-mercaptoethanol, pH 7.4, 0.1% Triton X-100) on 10% native-PAGE at 4°C, blotted with anti-CKM; dimer to monomers"}, "[3]": {"molecular_target": "the molecule itself", "test": "native gel or EMSA; CKM enriched from TAC-stressed mouse hearts, incubated with or without Sirt2 in vitro, then native-PAGE and anti-CKM blot; dimer to monomers"}, "[4]": {"molecular_target": "the molecule itself", "test": "cross-linking; quantitative crosslinking MS (XL-MS) with the PIR crosslinker BDP-NHP on rCKM: control, acetylated, and Sirt2-deacetylated; links mapped to PDB 1U6R"}}, "data": [{"protein": "Human recombinant creatine kinase MM (rCKM), nonacetylated (enzyme, creatine kinase M-type (muscle form, CKM), human; 381-amino acid polypeptide; The rows are of the chain with itself (MM homodimer); also called Human CK MM; CK muscle form; source: bought: R & D Systems (catalog 9070-CK) and Abcam (catalog ab73652)) not shown", "values": [{"measurement": "stoichiometry N", "setting": "[1]", "value": 2}]}, {"protein": "Murine CKM in cardiac lysates of sham and TAC-stressed hearts (enzyme, lysine acetylation, significantly higher in the failing (TAC) hearts, creatine kinase M-type (CKM), mouse (129S1/SvImJ); Sham and TAC hearts are kept as one molecule; the treatment is named in the rows; also called muscle CK isoform; source: endogenous, mouse heart lysate (sham and TAC, 12 weeks)) not shown", "values": [{"measurement": "fold decrease of the dimer content, TAC against sham hearts", "setting": "[2]", "value": 1.4, "unit": "fold"}, {"measurement": "fold increase of the monomer, TAC against sham hearts", "setting": "[2]", "value": 2.8, "unit": "fold"}]}, {"protein": "CKM enriched from TAC-stressed mouse hearts, deacetylated in vitro by Sirt2 (enzyme, lysine acetylation of failing-heart CKM, reduced by Sirt2, creatine kinase M-type (CKM), mouse (129S1/SvImJ); also called enriched CKM from TAC-stressed hearts + Sirt2; source: enriched from TAC mouse hearts (Blue Sepharose, Deae Sephadex A-50), then incubated with Sirt2) not shown", "values": [{"measurement": "fold decrease of the monomer against enriched TAC CKM without Sirt2", "setting": "[3]", "value": 3.5, "unit": "fold"}]}, {"protein": "Human recombinant CKM, in vitro acetylated (enzyme, acetyl-lysine at several lysines after in vitro acetylation (lysine residues 11, 32 and 196 are named; full list in Figure 5D), creatine kinase M-type (muscle form, CKM), human; 381-amino acid polypeptide; Same protein as m1 after in vitro acetylation; also called acetylated rCKM; in vitro acetylated rCKM) not shown", "values": [{"measurement": "fold reduction of the homodimer crosslink K11-K11 against control rCKM", "setting": "[4]", "value": 2, "unit": "fold"}, {"measurement": "fold reduction of the homodimer crosslink K196-K196 against control rCKM", "setting": "[4]", "value": 9, "unit": "fold"}, {"measurement": "fold decrease of the dimer band against nonacetylated rCKM", "setting": "[1]", "value": 2.1, "unit": "fold"}, {"measurement": "fold increase of the monomer band against nonacetylated rCKM", "setting": "[1]", "value": 5.6, "unit": "fold"}]}, {"protein": "Human recombinant CKM, in vitro acetylated and then deacetylated by Sirt2 (enzyme, acetyl-lysines removed in part by Sirt2 (lysine residues 11, 32 and 196 robustly deacetylated), creatine kinase M-type (muscle form, CKM), human; 381-amino acid polypeptide; Same protein as m2 after the in vitro deacetylation reaction; also called Sirt2-treated rCKM; Sirt2 deacetylated rCKM) not shown", "values": [{"measurement": "fold increase of the homodimer crosslink K11-K11 against acetylated rCKM", "setting": "[4]", "value": 1.3, "unit": "fold"}, {"measurement": "fold increase of the homodimer crosslink K196-K196 against acetylated rCKM", "setting": "[4]", "value": 1.8, "unit": "fold"}]}]}
